Test results: US20190389961A1 (INNATE PHARMA, published 2019)

Columns and labels:
[1] = target: T1, soluble recombinant human CD39-M2 extracellular domain protein (human, UniProt P49961 38-478, limits assumed); assay: cell-based or functional assay
T1 sequence: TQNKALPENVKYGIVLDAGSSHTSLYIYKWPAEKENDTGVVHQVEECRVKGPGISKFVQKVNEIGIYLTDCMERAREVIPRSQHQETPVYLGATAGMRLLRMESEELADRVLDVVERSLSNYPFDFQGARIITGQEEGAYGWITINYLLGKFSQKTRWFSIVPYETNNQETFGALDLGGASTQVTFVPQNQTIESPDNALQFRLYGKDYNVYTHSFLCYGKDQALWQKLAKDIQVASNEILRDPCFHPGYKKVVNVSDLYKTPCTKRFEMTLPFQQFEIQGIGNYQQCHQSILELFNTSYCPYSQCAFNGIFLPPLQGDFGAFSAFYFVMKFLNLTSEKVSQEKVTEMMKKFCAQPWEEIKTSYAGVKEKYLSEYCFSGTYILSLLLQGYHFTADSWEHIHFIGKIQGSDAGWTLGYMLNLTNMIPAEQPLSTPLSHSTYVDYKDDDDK

[2] = target: T2, human CD39 (vascular CD39, NTPDase1) expressed at the surface of cells (human, UniProt P49961 1-510); assay: cell-based or functional assay
T2 sequence: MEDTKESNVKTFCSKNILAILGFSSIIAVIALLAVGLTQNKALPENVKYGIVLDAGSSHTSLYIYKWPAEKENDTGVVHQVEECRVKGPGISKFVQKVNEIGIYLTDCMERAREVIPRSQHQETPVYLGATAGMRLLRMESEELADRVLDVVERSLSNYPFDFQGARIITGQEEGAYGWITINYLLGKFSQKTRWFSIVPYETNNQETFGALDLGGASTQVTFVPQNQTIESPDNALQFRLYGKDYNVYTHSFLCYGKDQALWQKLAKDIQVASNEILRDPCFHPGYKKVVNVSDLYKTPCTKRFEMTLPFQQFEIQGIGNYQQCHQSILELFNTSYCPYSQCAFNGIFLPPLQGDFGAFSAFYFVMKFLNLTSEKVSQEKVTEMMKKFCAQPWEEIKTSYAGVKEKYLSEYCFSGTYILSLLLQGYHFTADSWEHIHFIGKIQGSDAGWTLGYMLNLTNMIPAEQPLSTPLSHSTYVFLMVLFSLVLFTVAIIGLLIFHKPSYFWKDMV

human CD39 mutant 19 [3] = target: T3, human CD39 mutant 19 (human, UniProt P49961 1-510); assay: flow cytometry on Hek-293T cells expressing CD39 mutant 19 (panel M19)
T3 construct: Expressed on Hek-293T cells; also called M19
T3 chain: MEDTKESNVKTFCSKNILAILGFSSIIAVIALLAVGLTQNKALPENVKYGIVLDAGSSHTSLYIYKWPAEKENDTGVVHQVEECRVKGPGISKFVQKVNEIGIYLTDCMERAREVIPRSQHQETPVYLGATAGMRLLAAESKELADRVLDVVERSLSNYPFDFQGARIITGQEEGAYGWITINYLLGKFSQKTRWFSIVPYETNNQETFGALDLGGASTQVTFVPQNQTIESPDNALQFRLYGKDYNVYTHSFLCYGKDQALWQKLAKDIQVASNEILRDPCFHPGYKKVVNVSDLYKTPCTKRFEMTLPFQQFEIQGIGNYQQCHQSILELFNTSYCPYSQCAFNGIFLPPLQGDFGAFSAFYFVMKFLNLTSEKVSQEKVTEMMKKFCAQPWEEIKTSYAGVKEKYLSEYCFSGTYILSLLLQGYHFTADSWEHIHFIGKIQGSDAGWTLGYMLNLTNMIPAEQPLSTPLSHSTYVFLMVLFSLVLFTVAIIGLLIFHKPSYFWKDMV
Protocol: (§1) Mutants were transfected in Hek-293T cells, as shown in the table 1, using numbering of SEQ ID NO: 1. […] Mutant 19 includes substitutions at residues R138, M139 and E142.
(§2) In order to define the epitopes of the further anti-CD39 antibodies of Example 5, they were tested for loss of binding to the panel of CD39 mutants as described in Example 1 and Table 1. Mutants were transfected in Hek-293T cells, as shown in the table 1, using numbering of SEQ ID NO: 1.Dose-ranges of test antibodies (10-2.5-0.625-0.1563-0.0391-0.0098-0.0024-0.0006 μg/ml) are tested on the 20 generated mutants by flow cytometry.

[4] = target: T4, recombinant human CD39-L2 (NTPDase6, ENTPD6) (human, UniProt O75354 61-484, limits assumed); assay: ELISA on plate-coated recombinant huCD39 L2; the single curve has no legend on the sheet, I-394 by the legend paragraph 70
T4 construct: Genbank NP_001238 is printed
T4 sequence: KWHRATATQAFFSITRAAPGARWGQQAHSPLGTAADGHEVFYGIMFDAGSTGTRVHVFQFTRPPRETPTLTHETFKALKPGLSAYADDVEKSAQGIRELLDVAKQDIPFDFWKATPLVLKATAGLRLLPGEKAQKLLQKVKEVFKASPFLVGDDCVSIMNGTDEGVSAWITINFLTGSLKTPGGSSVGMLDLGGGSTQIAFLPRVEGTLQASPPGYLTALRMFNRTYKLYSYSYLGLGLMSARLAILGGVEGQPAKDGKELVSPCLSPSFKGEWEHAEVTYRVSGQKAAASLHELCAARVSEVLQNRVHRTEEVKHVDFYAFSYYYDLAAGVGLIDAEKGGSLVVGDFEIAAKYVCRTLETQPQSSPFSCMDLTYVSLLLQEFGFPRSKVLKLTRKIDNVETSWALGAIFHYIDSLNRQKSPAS
Protocol: Wells were washed in TBS Tween 20, and further saturated 2H at RT in TBS Blocking buffer. Dose range concentration of primary antibody was incubated in TBS blocking buffer for 2 h at RT. Wells were washed in TBS Tween 20. […] Optical density was measured on Enspire™ at OD=450.

[5] = target: T2, human CD39 (vascular CD39, NTPDase1) …; assay: flow cytometry on Hek-293T cells expressing wild-type CD39 (panel WT); unstained (US) median 10,3; antibody concentration not shown
Protocol: as §1, §2

human CD39 mutant 19 [6] = target: T3, human CD39 mutant 19; assay: flow cytometry on Hek-293T cells expressing CD39 mutant 19 (panel M19); unstained (US) median 8,98; antibody concentration not shown
Protocol: as §1, §2

B1: antibody I-394 (antibody, V domains shown)
VH: EVQLQQSGPELVKPGASVKMSCKASGYTFTDYNMHWVKQSHGRTLEWIGYIVPLNGGSTFNQKFKGRATLTVNTSSRTAYMELRSLTSEDSAAYYCARGGTRFAYWGQGTLVTVSA
VL: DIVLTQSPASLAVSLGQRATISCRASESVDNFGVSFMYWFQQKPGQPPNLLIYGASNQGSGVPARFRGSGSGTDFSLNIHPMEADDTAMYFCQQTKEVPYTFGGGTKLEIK
notes: Mouse variable regions; Produced in CHO with human IgG1 constant domains carrying L234A/L235E/G237A/A330S/P331S (Kabat EU numbering) and a human Ck constant domain
- IC50, inhibition of ATPase activity of soluble CD39 protein (Cell Titer Glo) [1]: 0.003 µg/mL
- IC50, inhibition of ATPase activity of CD39 on Ramos cells (Cell Titer Glo) [2]: 0.05 µg/mL
- binding result (human CD39 mutant 19 [3]): no binding
- binding result [4]: no binding (tested: about 50 µg/ml)
- Median : Comp-Alexa Fluor 647-A [5]: 3720
- Median : Comp-Alexa Fluor 647-A (human CD39 mutant 19 [6]): 24.4
